From patent publication US20220017612A1 (TILOS THERAPEUTICS, published 2022)

Key:
[1] = molecular target: T1, human LAP-TGFβ1 overexpressed on cells (human, UniProt P01137 30-390); experiment: flow cytometry; black bar HT1080-huB1, grey bar HT1080-null
T1 construct: HT1080 or P3U1 cells overexpressing wild-type human LAP-TGFβ1; also called HT1080-huB1; HT1080-hβ1

[2] = molecular target: T2, human GARP and human LAP-TGFβ1 co-expressed on P3U1 cells (human, UniProt Q14392 20-662); experiment: flow cytometry competition with biotin-28G11 (0.31 µg) on P3U1 cells with human GARP and LAP-TGFβ1
T2 construct: whole, on cells; also called P3U1 cells over-expressing human GARP and LAP-TGFβ1
Method: In the first experiment, the various humanized 28G11 candidates were tested for retention of binding to human LAP-TGFβ1 by competition with biotin-28G11 in a flow cytometry assay.
P3U1 cells over-expressing human GARP and LAP-TGFβ1 were placed in a round-bottom 96-well plate at density of 40,000 cells/well. The cells were washed with FACS buffer (25 mM HEPES, 2 mM EDTA, 2% fetal bovine serum in Hank's Balanced Salt Solution). 50 μL of 1:200 diluted TruStain Mouse FcX (BioLegend) was added to each well, followed by 50 μL of 100 ng/μL of humanized 28G11 construct (H0L0, H0L1, H0L2, H0L3, HILO, H1L1, H1L2, H1L3, H2L0, H2L1, H2L2, H2L3). The antibody was allowed to bind for 10 minutes. 50 μL of 6.2 ng/μL of biotinylated murine hybridoma 28G11_(hyb) was added to each well. The biotinylated antibody was allowed to bind for 10 minutes, and then the cells were washed twice with FACS buffer. The cells were labeled for 15 minutes with allophytocyanin-streptavidin (BioLegend), washed twice with FACS buffer, and analyzed by flow cytometry.

[3] = molecular target: T1, human LAP-TGFβ1 overexpressed on cells; experiment: flow cytometry; black bar HT1080-huB1, grey bar HT1080
LAP-TGFβ1 on THP-1 cells = molecular target: T3, LAP-TGFβ1 on THP-1 cells (Homo sapiens, UniProt P01137); experiment: flow cytometry, THP-1 cells, % positive cells
T3 construct: cell surface, endogenous; also called LAP+ THP-1 cells
Method: Anti-LAP antibodies were tested for their ability to bind to THP-1 cells, a cell line derived from a patient with acute monocytic leukemia that is reported to express LRRC33. THP-1 cells were incubated with FACS buffer and human Fc block followed by incubation with varying concentrations of Alexa 647 conjugated 28G11_(hyb), 22F9_mIgG2a, 20E6_mIgG2a, 17G8_hIgG1, 24E3_hIgG1, 2C9_mIgG2a, or mIgG2a isotype control. Cells were analyzed by flow cytometry and graphed as percent positive THP-1 cells or median fluorescent intensity (MFI) of anti-LAP binding. As shown in FIGS. 10A and 10B, antibodies 22F9, 17G8, 24E3, 20E6, and 2C9 display strong binding to THP-1 cells. […] In another experiment, the binding of 20E6 mIgG2a and 7H4 hyb to THP-1 cells was compared using the methods described above. […] In a separate experiment THP-1 cells were incubated with FACS buffer and human Fc block followed by incubation with 5 ug/ml of Alexa 647 conjugated 28G11_hyb, 22F9_mIgG2a, 20E6_mIgG2a, 2C9_mIgG2a, or IgG2a isotype control. Cells were analyzed by flow cytometry and gated as single cells. Representative dot plots are shown in FIG. 10D; in these plots, antibodies were at 5 ug/ml.

T2 sequence (chain, as listed by the source, chain 1 of 2): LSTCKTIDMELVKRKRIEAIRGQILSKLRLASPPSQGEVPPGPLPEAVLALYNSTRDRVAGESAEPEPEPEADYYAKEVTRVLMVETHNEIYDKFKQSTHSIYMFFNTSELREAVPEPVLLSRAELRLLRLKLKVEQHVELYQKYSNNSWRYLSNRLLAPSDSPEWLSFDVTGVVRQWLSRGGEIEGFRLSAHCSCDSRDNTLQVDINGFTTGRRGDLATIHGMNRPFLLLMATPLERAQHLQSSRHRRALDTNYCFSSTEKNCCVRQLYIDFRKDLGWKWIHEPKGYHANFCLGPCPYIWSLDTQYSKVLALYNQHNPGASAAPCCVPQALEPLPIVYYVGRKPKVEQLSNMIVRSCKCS
T2 sequence (Q14392 20-662, chain 2 of 2): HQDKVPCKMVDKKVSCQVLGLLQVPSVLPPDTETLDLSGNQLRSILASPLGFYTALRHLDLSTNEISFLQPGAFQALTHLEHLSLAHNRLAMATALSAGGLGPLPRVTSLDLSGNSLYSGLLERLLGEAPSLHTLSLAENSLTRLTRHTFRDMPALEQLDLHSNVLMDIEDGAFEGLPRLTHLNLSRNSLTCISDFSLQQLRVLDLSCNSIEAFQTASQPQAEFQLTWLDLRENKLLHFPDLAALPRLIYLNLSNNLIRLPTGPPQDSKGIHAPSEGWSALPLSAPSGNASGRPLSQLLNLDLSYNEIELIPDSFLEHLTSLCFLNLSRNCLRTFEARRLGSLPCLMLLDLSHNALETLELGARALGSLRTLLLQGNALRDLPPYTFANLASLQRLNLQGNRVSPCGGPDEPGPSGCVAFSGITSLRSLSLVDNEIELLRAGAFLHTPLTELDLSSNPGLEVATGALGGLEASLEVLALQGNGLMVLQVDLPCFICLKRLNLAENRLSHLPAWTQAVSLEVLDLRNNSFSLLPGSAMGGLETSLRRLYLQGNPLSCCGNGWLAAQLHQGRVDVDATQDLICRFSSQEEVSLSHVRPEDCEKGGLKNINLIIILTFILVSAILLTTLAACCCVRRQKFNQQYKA
T1 sequence (P01137 30-390): as the sequence (chain, as listed by the source, chain 1 of 2) above
T3 sequence (P01137 30-390 limits assumed): as the sequence (chain, as listed by the source, chain 1 of 2) above

B1: 20E6 H0.1 construct (antibody, human IgG1, kappa, V domains shown)
VH: QVQLVQSGAEVKKPGASVKVSCKASGYTFTSYWMHWVRQAPGQGLEWMGRIDPNSGGIKYAQKFQGRATLTVDTSTSTAYMELSRLRSDDTAVYYCARWDYGGYFDVWGQGTLVTVSS
VL: DIQMTQSPSSLSASVGDRVTITCRASQDITNYLNWYQQKPGKAVKLLIYYTSRLHSGVPSRFSGSGSGTDYTLTISSLQPEDFATYFCQQGDTLPWTFGQGTKLEIKR
binding result [1]: binds

B2: 28G11_H0L3 (antibody, human IgG1, kappa, V domains shown)
VH: EVQLVESGGGLVQPGGSLRLSCAASGFTFSDYYMSWVRQAPGKGLEWVGFIRNKPNGYTTEYSASVKGRFTISRDDSKNSLYLQMNSLKTEDTAVYYCARYTGGGYFDYWGQGTLVTVSS
VL: DIQMTQSPSSLSASVGDRLTISCRASQDISNYLNWYQQKPGKTVKLLIYYTSRLHSGVPSRFSGSGSGTDYTLTISSLQPEDVATYFCQQGDTLPWTFGQGTKLEIKR
binding result [2]: no binding (tested: 5 µg competitor)

B3: 28G11_H2L0 (antibody, human IgG1, kappa, V domains shown)
VH: EVQLVESGGGLVQPGGSLRLSCAASGFTFTDYYMSWVRQAPGKGLEWLGFIRNKPNGYTTEYSASVKGRFTISRDNSQSSLYLQMNSLKTEDTAVYYCARYTGGGYFDYWGQGTLLTVSS
VL: DIQMTQSPSSLSASVGDRVTITCRASQDISNYLNWYQQKPGKVPKLLIYYTSRLHSGVPSRFSGSGSGTDFTLTISSLQPEDVATYYCQQGDTLPWTFGQGTKLEIKR
binding result [2]: no binding (tested: 5 µg competitor)

B4: 22F9_Y98R (antibody, human IgG1, kappa, V domains shown)
VH: QVQLVQPGAEVVKPGASVKLSCKASGYTFTSYWMHWVKQRPGQGLEWIGMIHPNSGSTNYNEKFKSKATLTVDKSSSTAYMELSSLRSEDTAVYYCARYDYDGFFDVWGQGTLVTVSS
VL: DIQLTQSPSSLSASVGDRVTITCRASKSVSTSGYSYMHWYQQKPGKAPKLLIYLASNLESGVPSRFSGSGSGTDFTLTISSLQPEDFATYYCQHSRELPYTFGGGTKVEIKR
notes: also called 22F9_H5L0 with VH Y98R
binding result [3]: binds

B5: 7H4 (antibody, mouse IgG2b, kappa, V domains shown)
VH: DVQLQESGPGLVKPSQSLSLTCSVTGYSITSGYYWNWIRQFPGNKLEWMGYISYDGTNNYNPSLKNRISITRDTSKHQFFLKLNSVTTEDTATYYCARSFYNNYFDFWGQGTTLTVSS
VL: DIQMTQSPSSLSASLGGKVTITCKASQDIDKYIAWYQHKPGKGPRLLIHYTSTLQPGIPSRFSGSGSGRDYSFNISNLEPEDIATYYCLQYDNLRTFGGGTKLEIKR
notes: also called 7H4 hyb; 7H4_(hyb)
binding result (LAP-TGFβ1 on THP-1 cells): no binding (tested: 100 ug/ml)
